Experiment: soluble on expression in E. coli; label from the status in PepcDB or PDB records

Row | Sequence | soluble on expression in E. coli
1 | MGSDKIHHHHHHMATGTLPDAGQILNSLINSILLVDDDLAVHFANPAAQQLLAQSSRKLFGTPLPELLSYFSLNIGLMQESLQAGQGFTDNEVTLVIDGRSHILSLTAQRLPEGFILLEMAPMDNQRRLSQEQLQHAQQVAARDLVRGLAHEIKNPLGGLRGAAQLLSKALPDPALTEYTKVIIEQADRLRNLVDRLLGPQHPGMHVTESIHKVAERVVKLVSMELPDNVKLIRDYDPSLPELPHDPDQIEQVLLNIVRNALQALGPEGGEIILRTRTAFQLTLHGVRYRLAARIDVEDNGPGIPPHLQDTLFYPMVSGREGGTGLGLSIARSLIDQHSGKIEFTSWPGHTEFSVYLPIRK | not soluble
2 | MSLAQTPVMDVGTKSYISHQEQKMTATVEQIESWIVDVPTIRPHKLSMTTMGCQSLVIVRLTRSDGICGIGEATTIGGLSYGVESPEAISSAITHYLTPLLKGQPADNLNALTARMNGAIKGNTFAKSAIETALLDAQGKALGLPVSALLGGALQTALPVLWTLASGDTAKDIAEGEKLLAEGRHRAFKLKIGARELATDLRHTRAIVEALGDRASIRVDVNQAWDAATGAKGCRELAAMGVDLIEQPVSAHDNAALVRLSQQIETAILADEAVATAYDGYQLAQQGFTGAYALKIAKAGGPNSVLALARVAQAAGIGLYGGTMLEGTVGTVASLHAWSTLPLQWGTEMFGPLLLKDDIVSVPLTFADGQVALPQTPGLGVELDEDKLHFYTRQEGHHHHHH | soluble
3 | MGSDKIHHHHHHMRKKIVFIIRDLGYGGAQRQLITLVKNLDKQIFNTTVIFFYANGSLQKDLENNNIQTICLEKRGRWDIFGFLWRLMGHLKRIQPDSLHGYLSESNLLTIFLKPFFLSTSIIWGIRDSNISLDSYDWLDRLIFEIECLLSRFVDLIIVNSHAGQAYHLSHGFPAKKMVVIPNGIDTERFQPNSEAGLRVRTEWRISKDTILIGLIGRLDPMKDHPTFLKAVALLCKERENVCFVCVGIGTHEYAQELYQLAEELEVAEKVIWAGGRADMPDIYNALDITCSSSSYGEGFSNVIGEAMACGVPCVVTDVGDSAWIIDDTGIVVPPNNPEALKAGITSLINIISSKSYSSCHIRQRIISHFSVLNLSLKTQNSLLSINVL | not soluble
4 | MTHETDKIVEIERQKIEVENERFAIEDECCSIKKRIDVLDGVAAQISSGPASMGFSGQCSSSIPASGSQPHLTRRHTVTGQEPNPLAMSQNQMSTGFFFNHESLDNLAKFLGYYGE | not soluble
5 | SLSFSSKVKSEVCRYDDYSKGEAIAVLSAVMKASGTLALEGNRKISFKIITENPAIARLIFKLLKKYFDIHTEIMMKKSNSLKKNNVYVVSITEDMGVRELLKTVGVMKNEDGIVTLSYDIPEFVVKDDESRKMYIRGAFLGGGSVSNPEKMYHLEFVTHNEDYASNLRDLINTYGLNSKVIQRKNSYVVYIKEGEQVVDLLNIIGAHSSLLELENIRIIKEMRNNINRLVNCETANLSKTVNASVRQIESIKLIEKQIGLSRLPENLREVAKLRLNYPDESLKELGKMLEPPVGKSGVNHRLRKIEKIAEELRKEGR | soluble
6 | MHLYNLTLQGQSAINQAIQGNFSGTPKAQEIVVGRGSALELLTLDTVTGKIKVMCHQDIFGIVRSLLAFRLTAGTRDFIAVGSDSGRIVILQYNAEKTCFERLHQETFGKTGCRRIVPGHFLVGDPRGRALMIGAVERQKLVYIMNRDSEAHLTISSPLEAHKHHTLCYAMVGIDVGFENPTFACLEFDYEDADNDPTGEAAKRTQQTLTFYELDLGLNHVVRKYAEPLNDPGNLLIAVPGGNDGPSGVIVCCENYLVYKNLGDQPDIRCPIPRRRNELDDADRTMLIIATATHKTKNMYFFLVQAENGDIFKVTLETDEDLVSEMKLKYFDTVPPANALCILKSGFLFVAAEFGNHELYQIASLGEGDDDEFSSAMGFGENDAAFFEPHELKSLIPIDSMDSLSPLTDAVIGDIAREDAAQIYSLVGRGARSSLKVLRNGLEISEMAVSDLPGNPNAVWTVKKNIEDQYDSYIVVSFVNATLALTIGDTVEEASDSGFLPTTPTIGCAMIGDDSLVQIYSEGIRHIRADKRINEWKAPPRRQIVKCAVNRRQVAVALTGGELVYFELDLNGTLNEFTERKLFNADIACMTFSEISEGELNSRFLALGTVDNAVRIISLDPNDMLMPLSTQSLPCPPESILLIDTPNEDGKGVAAVHLNIGLQNGCLFRNTVDNVTGAIMDTRTRYLGTRPVKLFKVQCQGRSAILCTSSRSWLLYHFQRRFHLTPLSYANLEYAASFCSNQCSEGIVAISASTLRIIAAEKLGVAFNVQSFEHKMTPRRVAVHPSMPCLIVIETDHASYTEVTKNIKRNQMAADVEAMASDETEAQLAQEIATNLRERRLDERVYGAPRAARGKWASAISLISATSGDKLSYFELPQDENAKCVALVQFSKHPNEAMVLVGCGVNEVLNVHDIDPNDTSIRPTRGCVYTFHLSANGDRFDFLHRTETPLPVGAIHDFRGMALVGFGRFLRMYDIGQKKLLAKCENKNFPVSIVNIQSTGQRIIVSDSQESVHFLRYRKGDNQLVVFADDTTPRYVTCVCVLDYHTVAVADKFGNLAVVRLPERVNEDVQDDPTVSKSVWDRGWLNGASQKVELVSNFFIGDTITSLQKTSLMPGANEALVYTTIGGAIGCLVSFMSKDEVDFFTNLEMHVRSEYPPLCGRDHLAYRSYYAPCKSVIDGDICEQFSLMDTQKQKDVAEELGKTVSEISKKLEDIRTRYAF | not soluble
7 | MGNGMTKVLPGLYLGNFIDAKDLDQLGRNKITHIISIHESPQPLLQDITYLRIPVADTPEVPIKKHFKECINFIHCCRLNGGNCLVHCFAGISRSTTIVTAYVMTVTGLGWRDVLEAIKATRPIANPNPGFRQQLEEFGWASSQKLRRQLEERFGESPFRDEEELRALLPLCKRCRQGSATSASSAGPHSAASEGTVQRLVPRTPREAHRPLPLLARVKQTFSCLPRCLSRKGGK | soluble
8 | MAKFIQKRLFASYIIRKNYYEIIGVSASATRQEIRDAFLKKTKQLHPDQSRKSSKSDSRVGWATGSSETEQFMLVKEAYDVLRNEEKRKEYDLAFSREGGFLMEATHKTQEMSTQRRNIQRAEWSADVIPDAKRNSKKVVYSHFRNPEDEYLREKQKNRM | not soluble
9 | MMNYDRILIRYGEMTTKGKNRNIFVRRLKNNIARKLQAFERIQIEYMRDRMYILLNGEPHEPIIEKLKTVFGIHSFSLAMKCENDLDAIKETALAAVRQLPYKGKTFKVSARRVDKQFPDRSDELNYEVGAHILRHTDGLTVNVREPDIDVRIEVRQDGTYVTCRDIFGAGGLPVGTSGKAMLMLSGGIDSPVAGYLSMKRGLEIEAVHFFSPPFTSERAKQKVIDLVRKLTTYGGRIKLHIVPFTEVQQAIYQGVPNEYSLISTRRAMLRITDALRRRQRALAIVTGESLGQVASQTLESMYVINEVTNTPILRPLVSMDKLEIIELAKQIGTHDISILPYEDCCTIFTPRAPKTKPKKEKVFHYESQLDLAPLLEKAVNDTETLVIDEETGQGDEFAELF | not soluble
10 | MSRGYYRTEEEIVQDKVLHRDPGIIEENYASKPPSRRSSSNTNPDSLVNQKHAQPLPSPLHSPVKSVTGSSKNQSPKMAPVRSNSRGSSASSEEDIGTRSFSISVLKDSGTKVEIMLKAHGLRKKKGFINSLVTVFKKPSQPSRLLSNGKFTEFVLTEHALRFLLEVKTDKKKKKGNGNRLDTFLCEVKRFPSDVNPDSAEFEVLEPASGEAFILLTLIKTGNLSTNWKEFLDTHGTLDVSTI | soluble
11 | MGSDKIHHHHHHMQKKGNKYGTHRVLAPQGVLPQPAEKVDNNMDEIYDNEILIDVKTLNIDSASFTQIHEQAGGDKAKIAEIMLGIVAKQGKHRNPVTGSGGMLLGVVEKIGDALKDKIDLKVGDKIATLVSLSLTPLRIDKIKEIRPDVDQVDIEGKAILFESGIYAKIPNDLPEKLALSALDVAGAPAQTAKLVKPGDTVLIIGAGGKSGMLCCYEAKKRAGVTGKVIGLCHSQKSTDRLKALGFCDHVFSADATKPVPVMEEIEKLTNGEMCDVTINNVNITDTEMTSILCTKNDGIVYFFSMATSFTKAALGAEGVGSDVTMIVGNGYTKGHAEITLQELRECEALRKVFTELYA | not soluble
12 | MRVDIVPVGDVPAHVKRQASSSLRSVYDCEVVVASEQDVPTAAYDEARSQYRAAEFIDTATRATSGDKTIAITPHDLFYRRRNYVFGLAYLDGRGCVVSTYRLQTSSDGGFSNRSSSDVFDDRVRKEVVHELGHTLGLEHCDNNRCAMNFSPTVREVDRKEENLCGSCQRTVFLEHHHHHH | not soluble
13 | TAVSLEQLLIAREQRVALQQQCLHEYQQTLLSLTLTAVGPVKKNALLDYVFAKALANITACFNKLSVTATAQFIRPLQTGHEALFVLPIDAKILKRAMIELENSSPLARLWDIDVISQEGHYSRGEFGFAERTCLMCAESAKICARSRRHSIDDLLSEIHTRAQQ | not soluble
14 | MRTNAFEAVARYVYPSLRRRLVEILRERGLTQIQIAELLHITQSAVSRYLRMNRGALIEVEKFQDIDEKLKGLADTIVREKPDEYYIHGELVKIAVEMLGKGYVCSFHSKVDPEIDPKLCRICIETFGLEHHHHHH | soluble
15 | MRPMTHVPVLYQEALDLLAVRPGGVYVDATLGGAGHARGILERGGRVIGLDQDPEAVARAKGLHLPGLTVVQGNFRHLKRHLAALGVERVDGILADLGVSSFHLDDPSRGFSYQKEGPLDMRMGLEGPTAKEVVNRLPLEALARLLRELGEEPQAYRIARAIVAAREKAPIETTTQLAEIVRKAVGFRRAGHPARKTFQALRIYVNDELNALKEFLEQAAEVLAPGGRLVVIAFHSLEDRVVKRFLRESGLKVLTKKPLVPSEKEAAQNPRARSAKLRAAEKEAP | soluble
16 | MHHHHHHGSTSLYKKAGSETLYIQGMAEFPASLLILNGKSTDNLPLREAIMLLREEGMTIHVRVTWEKGDAARYVEEARKFGVATVIAGGGDGTINEVSTALIQCEGDDIPALGILPLGTANDFATSVGIPEALDKALKLAIAGDAIAIDMAQVNKQTCFINMATGGFGTRITTETPEKLKAALGSVSYIIHGLMRMDTLQPDRCEIRGENFHWQGDALVIGIGNGRQAGGGQQLCPNALINDGLLQLRIFTGDEILPALVSTLKSDEDNPNIIEGASSWFDIQAPHDITFNLDGEPLSGQNFHIEILPAALRCRLPPDCPLLRSTHHHHHH | soluble
17 | MSLKITQIQAQNKNKNRRNVFVDGSYEFSCDMEIILKYKLKEGLEIDRTKLLQVIDQSKEEFAFRLALNYLSFKSRTSFEIYTYLLKKEYEEKIIEKVIEKLKYYRYVDDNQYVLNYIKTALAEGKKGKDRVQSDLINKKIPQDMIESHMHLFSCETNLEIAKELSNKYFKQNAHLPFNQFKNKLSQFLMRKGFNWEIINTCLNILEQDSEEGHHHHHH | soluble
18 | MSLGYQYDTLIYNVRIASMQDNKLPYGELPPHAIAIKDGKIAALLPCDDSLDDVFEQAKSVIDATTLIPQNEGSTPKPPWLLPGFIDCHTHLVYGGNRAEEFEMRLQGASYVDIAQRGGGIKGTVEKTRCSDENTLLHTAIKRAKRLCEEGVTTIEVKSGYGLDLDTEVRMLRVAKSLEQHLPVSIKTTYLGAHALPNEFADDSEGYIDFICNEALPHIASQNLADAVDVFCETIGFSTSQTERVFSCAQQHGLPIKAHVEQLSDSKGAVLAAKYGALSVDHIEYLADSDIPLLAQSGTVAVLLPGAFYYLSEVQKPPVDALRAHNVPMALATDFNPGSSPLASILTAINMGCVLFQLTPEEALRGATAHAASALGLHDRGVIEAGKLADLTLWDIETPAELAYCINGHRPIAVFKEGKHVEGHHHHHH | soluble
